# According to article PMC2812487:
# What was measured:
# HLA-Cw6 on 721.221 cells = assay: flow cytometry on cells (Ig-fusion protein staining)
# HLA-Cw3 on 721.221 cells = assay: as above
substance,measurement,setting,value
KIR2DS2-Ig (from UniProt P43631) KYK/KFK,response,HLA-Cw6 on 721.221 cells,1.05 MFI
same,response,HLA-Cw3 on 721.221 cells,114 MFI
